Experimental data published in patent publication EP4702992A1 (CSPC Megalith Biopharmaceutical Co., Ltd., dated 2024).

How the values were obtained:
[1] = target: T1, recombinant human DLL3 protein (Kactus Biosystems, Cat. No. DLL-HM103) (human, UniProt Q9NYJ7 27-492, limits assumed); experiment: ELISA, human DLL3 coated at 0.1 µg/mL, absorbance at 450 nm
T1 construct: Bought protein coated on the ELISA plate; also called Human DLL3 proteins
T1 sequence (looked up): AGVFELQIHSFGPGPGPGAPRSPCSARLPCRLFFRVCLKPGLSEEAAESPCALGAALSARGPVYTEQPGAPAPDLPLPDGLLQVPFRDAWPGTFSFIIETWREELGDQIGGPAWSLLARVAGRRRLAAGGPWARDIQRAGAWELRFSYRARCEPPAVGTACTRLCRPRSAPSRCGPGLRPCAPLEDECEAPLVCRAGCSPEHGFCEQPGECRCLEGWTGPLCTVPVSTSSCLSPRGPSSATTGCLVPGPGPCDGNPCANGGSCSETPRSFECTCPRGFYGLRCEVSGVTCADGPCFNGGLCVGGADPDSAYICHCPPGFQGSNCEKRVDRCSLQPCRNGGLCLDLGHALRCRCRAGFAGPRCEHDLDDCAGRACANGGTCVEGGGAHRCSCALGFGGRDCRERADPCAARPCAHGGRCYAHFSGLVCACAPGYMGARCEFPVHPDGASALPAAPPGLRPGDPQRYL

[2] = target: T2, B7H3 antigen on the surface of A375 cells (human, UniProt Q5ZPR3 29-534); experiment: flow cytometry (MFI) on B7H3-positive A375 cells, anti-human Alexa Fluor 488
T2 construct: whole, on cells
T2 sequence (looked up): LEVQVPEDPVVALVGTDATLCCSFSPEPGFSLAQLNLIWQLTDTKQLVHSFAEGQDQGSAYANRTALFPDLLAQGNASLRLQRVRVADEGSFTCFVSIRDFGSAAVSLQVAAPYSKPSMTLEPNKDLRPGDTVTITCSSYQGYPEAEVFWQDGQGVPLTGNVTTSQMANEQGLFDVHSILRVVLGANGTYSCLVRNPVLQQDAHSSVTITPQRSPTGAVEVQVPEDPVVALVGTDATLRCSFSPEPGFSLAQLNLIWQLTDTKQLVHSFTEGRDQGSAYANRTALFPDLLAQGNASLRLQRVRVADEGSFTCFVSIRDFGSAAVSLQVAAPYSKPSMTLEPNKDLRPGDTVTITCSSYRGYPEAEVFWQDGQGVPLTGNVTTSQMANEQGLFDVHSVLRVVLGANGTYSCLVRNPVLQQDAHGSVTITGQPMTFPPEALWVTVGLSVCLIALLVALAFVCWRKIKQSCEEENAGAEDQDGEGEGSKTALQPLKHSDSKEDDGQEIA

[3] = target: T3, FOLR1 antigen (Sino Biological, Cat. No. 11241-H08H) (UniProt P15328 25-233); experiment: ELISA, FOLR1 coated at 0.1 µg/mL, anti-human IgG-HRP detection
T3 construct: Bought protein coated on the ELISA plate; also called FRα
T3 sequence (P15328 25-233 limits assumed): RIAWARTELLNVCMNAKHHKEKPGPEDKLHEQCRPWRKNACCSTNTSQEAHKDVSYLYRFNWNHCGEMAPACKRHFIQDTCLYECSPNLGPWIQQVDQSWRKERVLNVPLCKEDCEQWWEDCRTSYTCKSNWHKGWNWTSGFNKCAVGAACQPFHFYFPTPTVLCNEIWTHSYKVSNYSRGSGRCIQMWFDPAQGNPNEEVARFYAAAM

B1: 33B (antibody, human IgG1, kappa, L234A L235A, V domains shown)
VH: QVQLVQSGAEVKKPGASVKVSCKASGYTFTDYYMKWVRQAPGQRLEWMGAFNLNNGDTFYNQKFKGRVTITRDTSASTAYMELSSLRSEDTAVYYCARDVYGYGDYWGQGTSVTVSS
VL: DIVMTQSPDSLAVSLGERATINCRASKSVSTSGYSYMHWYQQKPGQPPKLLIYLASNLDSGVPDRFSGSGSGTDFTLTISSLQAEDVAVYYCQHSRELPYTFGGGTKLEIKR
notes: Naked anti-DLL3 antibody
Binder B1 has an EC50 [1] of 1.87 pM and an Emax [1] of 2.5.

B2: D-BATADC (antibody, human IgG1, kappa, L234A L235A, V domains shown)
VH: QVQLVQSGAEVKKPGASVKVSCKASGYTFTDYYMKWVRQAPGQRLEWMGAFNLNNGDTFYNQKFKGRVTITRDTSASTAYMELSSLRSEDTAVYYCARDVYGYGDYWGQGTSVTVSS
VL: DIVMTQSPDSLAVSLGERATINCRASKSVSTSGYSYMHWYQQKPGQPPKLLIYLASNLDSGVPDRFSGSGSGTDFTLTISSLQAEDVAVYYCQHSRELPYTFGGGTKLEIKR
modifications: control linker-drug BATLD conjugated to the antibody; average DAR 7.7 per antibody
Work on B2 yielded an EC50 [1] of 5.27 pM and an Emax [1] of 2.6.

B3: D-ADC55-1-8 (antibody, human IgG1, kappa, L234A L235A, V domains shown)
VH: QVQLVQSGAEVKKPGASVKVSCKASGYTFTDYYMKWVRQAPGQRLEWMGAFNLNNGDTFYNQKFKGRVTITRDTSASTAYMELSSLRSEDTAVYYCARDVYGYGDYWGQGTSVTVSS
VL: DIVMTQSPDSLAVSLGERATINCRASKSVSTSGYSYMHWYQQKPGQPPKLLIYLASNLDSGVPDRFSGSGSGTDFTLTISSLQAEDVAVYYCQHSRELPYTFGGGTKLEIKR
modifications: linker-drug LD55-1 (exatecan payload) conjugated to sulfhydryls of reduced interchain disulfide cysteines; average DAR 8.0 per antibody
notes: Antibody-drug conjugate: 33B + LD55-1, DAR 8.0
With B3 the EC50 [1] was 6.28 pM and the Emax [1] was 2.5.

B4: D-ADC12-1-8 (antibody, human IgG1, kappa, L234A L235A, V domains shown)
VH: QVQLVQSGAEVKKPGASVKVSCKASGYTFTDYYMKWVRQAPGQRLEWMGAFNLNNGDTFYNQKFKGRVTITRDTSASTAYMELSSLRSEDTAVYYCARDVYGYGDYWGQGTSVTVSS
VL: DIVMTQSPDSLAVSLGERATINCRASKSVSTSGYSYMHWYQQKPGQPPKLLIYLASNLDSGVPDRFSGSGSGTDFTLTISSLQAEDVAVYYCQHSRELPYTFGGGTKLEIKR
modifications: linker-drug LD12-1 (exatecan payload) conjugated to sulfhydryls of reduced interchain disulfide cysteines; average DAR 8.0 per antibody
notes: Antibody-drug conjugate: 33B + LD12-1, DAR 8.0
Binder B4 has an EC50 [1] of 5.84 pM and an Emax [1] of 2.6.

B5: D-ADC2-1-8 (antibody, human IgG1, kappa, L234A L235A, V domains shown)
VH: QVQLVQSGAEVKKPGASVKVSCKASGYTFTDYYMKWVRQAPGQRLEWMGAFNLNNGDTFYNQKFKGRVTITRDTSASTAYMELSSLRSEDTAVYYCARDVYGYGDYWGQGTSVTVSS
VL: DIVMTQSPDSLAVSLGERATINCRASKSVSTSGYSYMHWYQQKPGQPPKLLIYLASNLDSGVPDRFSGSGSGTDFTLTISSLQAEDVAVYYCQHSRELPYTFGGGTKLEIKR
modifications: linker-drug LD2-1 (exatecan payload) conjugated to sulfhydryls of reduced interchain disulfide cysteines; average DAR 8.0 per antibody
notes: Antibody-drug conjugate: 33B + LD2-1, DAR 8.0
B5 gave an EC50 [1] of 4.64 pM and an Emax [1] of 2.5.

B6: B-ADC55-1-6 (antibody, human IgG1, kappa, L234A L235A, V domains shown)
VH: QVQLVQSGAEVKKPGASVKVSCKASGYTFTDYFMNWVRQAPGQGLEWMGDVNPKTGSPSYNQKFKGRVTMTRDTSTSTVYMELSSLRSEDTAVYYCARRYGFLYSMDYWGQGTSVTVSS
VL: DIQMTQSPSSLSASVGDRVTITCRASQDISNYLNWYQQKPGKAVKVLIYYTSRLHSGVPSRFSGSGSGTDFTFTISSLQPEDIATYYCQQGNTHPFTFGGGTKVEIKR
modifications: linker-drug LD55-1 (exatecan payload) conjugated to sulfhydryls of reduced interchain disulfide cysteines; average DAR 5.7 per antibody
notes: Antibody-drug conjugate: 43B + LD55-1, DAR 5.7
Work on B6 yielded an EC50 [2] of 0.0378 µg/mL.

B7: B-ADC12-1-6 (antibody, human IgG1, kappa, L234A L235A, V domains shown)
VH: QVQLVQSGAEVKKPGASVKVSCKASGYTFTDYFMNWVRQAPGQGLEWMGDVNPKTGSPSYNQKFKGRVTMTRDTSTSTVYMELSSLRSEDTAVYYCARRYGFLYSMDYWGQGTSVTVSS
VL: DIQMTQSPSSLSASVGDRVTITCRASQDISNYLNWYQQKPGKAVKVLIYYTSRLHSGVPSRFSGSGSGTDFTFTISSLQPEDIATYYCQQGNTHPFTFGGGTKVEIKR
modifications: linker-drug LD12-1 (exatecan payload) conjugated to sulfhydryls of reduced interchain disulfide cysteines; average DAR 6.0 per antibody
notes: Antibody-drug conjugate: 43B + LD12-1, DAR 6.0
For B7, the EC50 [2] was 0.04 µg/mL.

B8: B-ADC2-1-6 (antibody, human IgG1, kappa, L234A L235A, V domains shown)
VH: QVQLVQSGAEVKKPGASVKVSCKASGYTFTDYFMNWVRQAPGQGLEWMGDVNPKTGSPSYNQKFKGRVTMTRDTSTSTVYMELSSLRSEDTAVYYCARRYGFLYSMDYWGQGTSVTVSS
VL: DIQMTQSPSSLSASVGDRVTITCRASQDISNYLNWYQQKPGKAVKVLIYYTSRLHSGVPSRFSGSGSGTDFTFTISSLQPEDIATYYCQQGNTHPFTFGGGTKVEIKR
modifications: linker-drug LD2-1 (exatecan payload) conjugated to sulfhydryls of reduced interchain disulfide cysteines; average DAR 5.6 per antibody
notes: Antibody-drug conjugate: 43B + LD2-1, DAR 5.6
Binder B8 has an EC50 [2] of 0.0416 µg/mL.

B9: Farletuzumab (antibody, human IgG1, kappa)
heavy: not shown
light: DIQLTQSPSSLSASVGDRVTITCSVSSSISSNNLHWYQQKPGKAPKPWIYGTSNLASGVPSRFSGSGSGTDYTFTISSLQPEDIATYYCQQWSSYPYMYTFGQGTKVEIKRTVAAPSVFIFPPSDEQLKSGTASVVCLLNNFYPREAKVQWKVDNALQSGNSQESVTEQDSKDSTYSLSSTLTLSKADYEKHKVYACEVTHQGLSSPVTKSFNRGEC
notes: Naked anti-FRα antibody
B9 showed an EC50 [3] of 26.1 pM.

B10: F-ADC55-1-8 (antibody, human IgG1, kappa)
heavy: not shown
light: DIQLTQSPSSLSASVGDRVTITCSVSSSISSNNLHWYQQKPGKAPKPWIYGTSNLASGVPSRFSGSGSGTDYTFTISSLQPEDIATYYCQQWSSYPYMYTFGQGTKVEIKRTVAAPSVFIFPPSDEQLKSGTASVVCLLNNFYPREAKVQWKVDNALQSGNSQESVTEQDSKDSTYSLSSTLTLSKADYEKHKVYACEVTHQGLSSPVTKSFNRGEC
modifications: linker-drug LD55-1 (exatecan payload) conjugated to sulfhydryls of reduced interchain disulfide cysteines; average DAR 7.6 per antibody
notes: Antibody-drug conjugate: farletuzumab + LD55-1, DAR 7.6
B10 gave an EC50 [3] of 36.9 pM.

B11: Farletuzumab-FcS (antibody, human IgG1, kappa, L234A L235A)
heavy: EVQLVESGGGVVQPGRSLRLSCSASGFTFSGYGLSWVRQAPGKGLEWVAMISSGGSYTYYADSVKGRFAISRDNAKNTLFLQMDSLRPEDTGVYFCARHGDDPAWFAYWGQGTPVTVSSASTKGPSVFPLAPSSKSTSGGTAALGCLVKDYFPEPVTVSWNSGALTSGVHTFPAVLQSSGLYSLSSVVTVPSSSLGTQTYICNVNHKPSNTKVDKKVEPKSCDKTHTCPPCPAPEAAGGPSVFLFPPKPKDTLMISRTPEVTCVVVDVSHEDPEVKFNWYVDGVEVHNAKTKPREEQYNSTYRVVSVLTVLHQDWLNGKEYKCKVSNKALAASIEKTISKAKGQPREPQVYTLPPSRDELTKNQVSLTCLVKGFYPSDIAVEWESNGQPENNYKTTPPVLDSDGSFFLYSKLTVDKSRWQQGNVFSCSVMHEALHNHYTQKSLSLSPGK
light: DIQLTQSPSSLSASVGDRVTITCSVSSSISSNNLHWYQQKPGKAPKPWIYGTSNLASGVPSRFSGSGSGTDYTFTISSLQPEDIATYYCQQWSSYPYMYTFGQGTKVEIKRTVAAPSVFIFPPSDEQLKSGTASVVCLLNNFYPREAKVQWKVDNALQSGNSQESVTEQDSKDSTYSLSSTLTLSKADYEKHKVYACEVTHQGLSSPVTKSFNRGEC
notes: also called Farletuzumab-FS
Binder B11 has an EC50 [3] of 19.9 pM.

B12: DSADC (antibody, V domains shown)
VH: QVQLVQSGAEVKKPGSSVKVSCKASGYTFTNYVMHWVRQAPGQGLEWMGYINPYNDDVKYNEKFKGRVTITADESTSTAYMELSSLRSEDTAVYYCARWGYYGSPLYYFDYWGQGTLVTVSS
VL: EIVLTQSPATLSLSPGERATLSCRASSRLIYMHWYQQKPGQAPRPLIYATSNLASGIPARFSGSGSGTDFTLTISSLEPEDFAVYYCQQWNSNPPTFGQGTKVEIKR
modifications: control linker-drug per CN104755494A conjugated to the antibody; average DAR 3.9 per antibody
notes: Control anti-B7H3 ADC; the tie of DSADC to M30 is by position and a drawing only; also called M30 antibody conjugate
Work on B12 yielded an EC50 [2] of 0.0925 µg/mL.
